Measured values: the supplement of paper PMC7877785
± gives the uncertainty stated by the source.

Assay: self-splicing fitness, log relative to wild type (ln ratio); higher = more splicing; Tetrahymena group I intron in knt gene, E. coli kanamycin selection, DiMSum; sequences stand for … in CUCUCU…GGAGGGAAAAGUUAUCAGGCAUGCACCUGGUAGCUAGUCUUUAAACCAAUAGAUUGCAUCGGUUUAAAAGGCAAGACCGUCAAAUUGCGGGAAAGGGGUCAACAGCCGUUCAGUACCAAGUCUCAGGGGAAACUUUGAGAUGGCCUUGCAAAGGGUAUGGUAAUAAGCUGACGGACAUGGUCCUAACCACGCAGCCAAGUCCUAAGUCAACAGAUCUUCUGUUGAUAUGGAUGCAGUUCACAGACUAAAUGUCGGUCGGGGAAGAUGUAUUCUUCUCAUAAGAUAUAGUCGGACCUCUCCUUAAUGGGAGCUAGCGGAUGAAGUGAUGCAACACUGGAGCCGCUGGGAACUAAUUUGUAUGCGAAAGUAUAUUGAUUAGUUUUGGAGUACUCGUGGUCG
How it was run: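 Six replicate transformations of E. coli BL21(DE3) with a pET-22b(+) library were grown overnight at 37°C or 30°C. The library randomised all eight P1ex-region intron nucleotides, the intron lying in the knt kanamycin-resistance gene, and plates were LB agar with or without 25 μg/mL kanamycin plus 100 μg/mL carbenicillin, 50 μM IPTG and 0.2% rhamnose. Pooled colonies were amplicon-sequenced on an Illumina HiSeq 2500, and fitness is the DiMSum error-weighted combination of wild-type-normalised replicate fold changes, kanamycin versus none.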

UCUAAGCAAUAUUACGCUGC
self-splicing fitness (ln) (30 °C): -3.41 ± 0.19
self-splicing fitness (ln) (37 °C): -2.84 ± 0.19

UCUAAGCAAUAUUACGCUUG
self-splicing fitness (ln) (37 °C): -2.59 ± 0.41

UCUAAGCAAUAUUACGGCAU
self-splicing fitness (ln) (30 °C): -3.46 ± 0.26
self-splicing fitness (ln) (37 °C): -2.55 ± 0.21

UCUAAGCAAUAUUACGGGCG
self-splicing fitness (ln) (30 °C): -1.54 ± 0.11
self-splicing fitness (ln) (37 °C): -0.979 ± 0.095

UCUAAGCAAUAUUACGGGGU
self-splicing fitness (ln) (30 °C): -2.9 ± 0.26
self-splicing fitness (ln) (37 °C): -2.45 ± 0.21

UCUAAGCAAUAUUACGGUGC
self-splicing fitness (ln) (30 °C): -2.58 ± 0.12
self-splicing fitness (ln) (37 °C): -2.85 ± 0.2

UCUAAGCAAUAUUACGGUUG
self-splicing fitness (ln) (30 °C): -2.82 ± 0.15
self-splicing fitness (ln) (37 °C): -2.61 ± 0.18

UCUAAGCAAUAUUACGUAAC
self-splicing fitness (ln) (30 °C): -4.19 ± 0.24
self-splicing fitness (ln) (37 °C): -2.94 ± 0.24

UCUAAGCAAUAUUACGUCUC
self-splicing fitness (ln) (37 °C): -3.38 ± 0.4

UCUAAGCAAUAUUACGUUGA
self-splicing fitness (ln) (30 °C): -1.71 ± 0.089
self-splicing fitness (ln) (37 °C): -1.29 ± 0.086

UCUAAGCAAUAUUACGUUUU
self-splicing fitness (ln) (30 °C): -3.43 ± 0.19
self-splicing fitness (ln) (37 °C): -3.06 ± 0.29

UCUCAGCAAUAUUACGAACC
self-splicing fitness (ln) (30 °C): -1.84 ± 0.18
self-splicing fitness (ln) (37 °C): -1.69 ± 0.28

UCUCAGCAAUAUUACGACAC
self-splicing fitness (ln) (30 °C): -4.22 ± 0.26
self-splicing fitness (ln) (37 °C): -3.33 ± 0.33

UCUCAGCAAUAUUACGAUGU
self-splicing fitness (ln) (30 °C): -1.07 ± 0.09
self-splicing fitness (ln) (37 °C): -0.224 ± 0.12

UCUCAGCAAUAUUACGCAGU
self-splicing fitness (ln) (30 °C): -2.93 ± 0.16
self-splicing fitness (ln) (37 °C): -1.96 ± 0.19

UCUCAGCAAUAUUACGCGAU
self-splicing fitness (ln) (30 °C): -4.5 ± 0.34
self-splicing fitness (ln) (37 °C): -2.1 ± 0.36

UCUCAGCAAUAUUACGCGGA
self-splicing fitness (ln) (30 °C): -2.54 ± 0.37
self-splicing fitness (ln) (37 °C): -2.46 ± 0.29

UCUCAGCAAUAUUACGGAGG
self-splicing fitness (ln) (30 °C): -4.93 ± 0.29
self-splicing fitness (ln) (37 °C): -1.97 ± 0.17

UCUCAGCAAUAUUACGGCGU
self-splicing fitness (ln) (30 °C): -0.533 ± 0.087
self-splicing fitness (ln) (37 °C): -0.636 ± 0.12

UCUCAGCAAUAUUACGUAGG
self-splicing fitness (ln) (30 °C): -0.566 ± 0.053
self-splicing fitness (ln) (37 °C): -0.133 ± 0.1

UCUCAGCAAUAUUACGUCAG
self-splicing fitness (ln) (30 °C): -3.54 ± 0.25
self-splicing fitness (ln) (37 °C): -3.16 ± 0.27

UCUGAGCAAUAUUACGAAAU
self-splicing fitness (ln) (30 °C): -4.41 ± 0.46
self-splicing fitness (ln) (37 °C): -2.24 ± 0.4

UCUGAGCAAUAUUACGAAGA
self-splicing fitness (ln) (30 °C): -1.67 ± 0.21
self-splicing fitness (ln) (37 °C): -0.838 ± 0.27

UCUGAGCAAUAUUACGAUGU
self-splicing fitness (ln) (30 °C): -2.72 ± 0.15
self-splicing fitness (ln) (37 °C): -0.718 ± 0.16

UCUGAGCAAUAUUACGAUUG
self-splicing fitness (ln) (30 °C): -2.97 ± 0.27
self-splicing fitness (ln) (37 °C): -2.39 ± 0.33

UCUGAGCAAUAUUACGCACU
self-splicing fitness (ln) (30 °C): -4.18 ± 0.39
self-splicing fitness (ln) (37 °C): -2.1 ± 0.28

UCUGAGCAAUAUUACGCGAC
self-splicing fitness (ln) (37 °C): -2.85 ± 0.48

UCUGAGCAAUAUUACGCGCG
self-splicing fitness (ln) (37 °C): -1.69 ± 0.46

UCUGAGCAAUAUUACGCGUC
self-splicing fitness (ln) (37 °C): -2.49 ± 0.48

UCUGAGCAAUAUUACGCUUA
self-splicing fitness (ln) (30 °C): -2.24 ± 0.26
self-splicing fitness (ln) (37 °C): -2.38 ± 0.45

UCUGAGCAAUAUUACGGGCA
self-splicing fitness (ln) (30 °C): -3.41 ± 0.33
self-splicing fitness (ln) (37 °C): -2.49 ± 0.16

UCUGAGCAAUAUUACGGGGG
self-splicing fitness (ln) (30 °C): -3.29 ± 0.36
self-splicing fitness (ln) (37 °C): -2.49 ± 0.25

UCUGAGCAAUAUUACGGUAG
self-splicing fitness (ln) (30 °C): -3.93 ± 0.33
self-splicing fitness (ln) (37 °C): -1.67 ± 0.18

UCUGAGCAAUAUUACGGUGG
self-splicing fitness (ln) (30 °C): -1.29 ± 0.084
self-splicing fitness (ln) (37 °C): -0.277 ± 0.1

UCUGAGCAAUAUUACGUCCA
self-splicing fitness (ln) (30 °C): -2.33 ± 0.3
self-splicing fitness (ln) (37 °C): -1.68 ± 0.38

UCUUAGCAAUAUUACGAACG
self-splicing fitness (ln) (30 °C): -0.815 ± 0.15
self-splicing fitness (ln) (37 °C): -1 ± 0.2

UCUUAGCAAUAUUACGAGCU
self-splicing fitness (ln) (30 °C): -3.09 ± 0.34
self-splicing fitness (ln) (37 °C): -1.01 ± 0.26

UCUUAGCAAUAUUACGAUCA
self-splicing fitness (ln) (30 °C): -1.3 ± 0.22
self-splicing fitness (ln) (37 °C): -1.15 ± 0.23

UCUUAGCAAUAUUACGCAUU
self-splicing fitness (ln) (30 °C): -4.23 ± 0.19
self-splicing fitness (ln) (37 °C): -2.47 ± 0.16
